Measured values as given in the Immune Epitope Database (IEDB).

What was measured:
[1] = target: HLA-B*15:01; assay: IEDB peptide-MHC binding, purified MHC/direct/fluorescence; filed as Kd, often an IC50 or EC50 that approximates it; ≥ and ≤ were set here for values at or beyond the usual limits of such assays
[2] = target: HLA-A*31:01; assay: as above
[3] = target: HLA-A*69:01; assay: as above
[4] = target: HLA-A*26:01; assay: as above
[5] = target: HLA-A*11:01; assay: as above
[6] = target: HLA-A*01:01; assay: as above
[7] = target: HLA-B*58:01; assay: as above
[8] = target: HLA-B*07:02; assay: as above
[9] = target: HLA-B*27:05; assay: as above
[10] = target: HLA-B*08:01; assay: as above
[11] = target: HLA-B*35:01; assay: as above
[12] = target: HLA-A*03:01; assay: as above
[13] = target: HLA-A*02:01; assay: as above
[14] = target: HLA-B*40:01; assay: as above; conditions: source organism: Vibrio parahaemolyticus
[15] = target: HLA-B*44:02; assay: as above; conditions: source organism: Vibrio parahaemolyticus
[16] = target: HLA-B*15:03; assay: IEDB peptide-MHC binding, purified MHC/competitive/radioactivity; filed as Kd, often an IC50 or EC50 that approximates it; ≥ and ≤ were set here for values at or beyond the usual limits of such assays; conditions: source organism: Vaccinia virus WR
[17] = target: HLA-A*31:01; assay: IEDB peptide-MHC binding, purified MHC/competitive/fluorescence; filed as Kd, often an IC50 or EC50 that approximates it; ≥ and ≤ were set here for values at or beyond the usual limits of such assays; conditions: source organism: Yersinia pestis Nepal516
[18] = target: HLA-B*08:01; assay: as above; conditions: source organism: Yersinia pestis Nepal516
[19] = target: HLA-A*03:01; assay: as above
[20] = target: HLA-B*15:01; assay: as above; conditions: source organism: Salmonella enterica subsp. enterica serovar Typhi
[21] = target: HLA-A*01:01; assay: as above; conditions: source organism: Salmonella enterica subsp. enterica serovar Typhi
[22] = target: HLA-B*58:01; assay: as above
[23] = target: HLA-B*35:01; assay: as above
[24] = target: HLA-B*46:01; assay: as above
[25] = target: HLA-B*15:01; assay: IEDB peptide-MHC binding, purified MHC/competitive/radioactivity; filed as Kd, often an IC50 or EC50 that approximates it; ≥ and ≤ were set here for values at or beyond the usual limits of such assays; conditions: source organism: Vaccinia virus WR
[26] = target: HLA-A*32:01; assay: as above; conditions: source organism: Vaccinia virus WR
[27] = target: HLA-B*27:05; assay: IEDB peptide-MHC binding, purified MHC/competitive/fluorescence; filed as Kd, often an IC50 or EC50 that approximates it; ≥ and ≤ were set here for values at or beyond the usual limits of such assays
[28] = target: HLA-B*07:02; assay: as above
[29] = target: HLA-A*30:01; assay: IEDB peptide-MHC binding, purified MHC/competitive/radioactivity; filed as Kd, often an IC50 or EC50 that approximates it; ≥ and ≤ were set here for values at or beyond the usual limits of such assays; conditions: source organism: Vaccinia virus WR
[30] = target: HLA-B*08:01; assay: as above; conditions: source organism: Vaccinia virus WR
[31] = target: HLA-B*45:06; assay: IEDB peptide-MHC binding, purified MHC/competitive/fluorescence; filed as Kd, often an IC50 or EC50 that approximates it; ≥ and ≤ were set here for values at or beyond the usual limits of such assays; conditions: source organism: Yersinia pestis Nepal516
[32] = target: HLA-B*51:01; assay: as above; conditions: source organism: Yersinia pestis Nepal516
[33] = target: HLA-B*15:42; assay: as above; conditions: source organism: Yersinia pestis Nepal516
[34] = target: HLA-B*83:01; assay: as above; conditions: source organism: Yersinia pestis Nepal516
[35] = target: HLA-A*69:01; assay: as above; conditions: source organism: Orthohantavirus tulaense
[36] = target: HLA-A*26:01; assay: as above; conditions: source organism: Orthohantavirus tulaense
[37] = target: HLA-B*57:01; assay: as above; conditions: source organism: Orthohantavirus tulaense
[38] = target: HLA-A*02:01; assay: as above; conditions: source organism: Orthohantavirus tulaense
[39] = target: HLA-B*27:03; assay: as above; conditions: source organism: Orthohantavirus tulaense
[40] = target: HLA-A*02:11; assay: IEDB peptide-MHC binding, purified MHC/direct/fluorescence; filed as Kd, often an IC50 or EC50 that approximates it; ≥ and ≤ were set here for values at or beyond the usual limits of such assays; conditions: source organism: Orthohantavirus tulaense
[41] = target: HLA-A*02:12; assay: as above; conditions: source organism: Orthohantavirus tulaense
[42] = target: HLA-A*68:02; assay: as above; conditions: source organism: Orthohantavirus tulaense
[43] = target: HLA-A*02:16; assay: as above; conditions: source organism: Orthohantavirus tulaense
[44] = target: HLA-A*02:19; assay: as above; conditions: source organism: Orthohantavirus tulaense
[45] = target: HLA-A*02:03; assay: as above; conditions: source organism: Orthohantavirus tulaense
[46] = source organism: Vibrio vulnificus
[47] = source organism: Vibrio parahaemolyticus
[48] = source organism: Yersinia pestis Nepal516
[49] = source organism: Salmonella enterica subsp. enterica serovar Typhi
[50] = source organism: Mycobacterium tuberculosis F11
[51] = source organism: Orthohantavirus tulaense

## EEVWRDPYL
[1]; [46]
  Kd: ≥ 20000 nM
[2]; [46]
  Kd: ≥ 20000 nM
[3]; [46]
  Kd: ≥ 20000 nM
[4]; [46]
  Kd: ≥ 20000 nM
[5]; [46]
  Kd: ≥ 20000 nM
[6]; [46]
  Kd: ≥ 20000 nM
[7]; [46]
  Kd: ≥ 20000 nM
[8]; [46]
  Kd: ≥ 20000 nM
[9]; [46]
  Kd: ≥ 20000 nM
[10]; [46]
  Kd: ≥ 20000 nM
[11]; [46]
  Kd: 23.9 nM
[12]; [46]
  Kd: ≥ 20000 nM
[13]; [46]
  Kd: ≥ 20000 nM

## YREAGIPVL
[1]; [47]
  Kd: ≥ 20000 nM
[2]; [47]
  Kd: ≥ 20000 nM
[3]; [47]
  Kd: ≥ 20000 nM
[14]
  Kd: ≥ 20000 nM
[4]; [47]
  Kd: ≥ 20000 nM
[5]; [47]
  Kd: ≥ 20000 nM
[15]
  Kd: ≥ 20000 nM
[6]; [47]
  Kd: ≥ 20000 nM
[7]; [47]
  Kd: ≥ 20000 nM
[8]; [47]
  Kd: ≥ 20000 nM
[9]; [47]
  Kd: 654 nM
[10]; [47]
  Kd: ≥ 20000 nM
[11]; [47]
  Kd: 1000 nM
[12]; [47]
  Kd: ≥ 20000 nM
[13]; [47]
  Kd: ≥ 20000 nM

## ILVNQYSHM
[16]
  Kd: 37.4 nM

## FIRLRFAFK
[17]
  Kd: 17.3 nM
[18]
  Kd: ≥ 20000 nM
[19]; [48]
  Kd: ≥ 20000 nM

## MTAAQIRRY
[20]
  Kd: 168 nM
[21]
  Kd: 243 nM
[22]; [49]
  Kd: ≥ 20000 nM
[19]; [49]
  Kd: 3500 nM

## FSIPVTFSY
[22]; [50]
  Kd: 0.7 nM
[23]; [50]
  Kd: ≤ 0.1 nM
[24]; [50]
  Kd: 68.6 nM
[6]; source organism: Mycobacterium tuberculosis
  Kd: 316 nM

## YQNHGFVSF
[25]
  Kd: 0.173 nM
[16]
  Kd: 2.43 nM
[26]
  Kd: 358 nM

## YRLFKHGLK
[27]; source organism: Influenza A virus (A/Memphis/1/1978(H1N1))
  Kd: 217 nM

## LPACVYGLAV
[28]; source organism: Influenza A virus (A/parakeet/Narita/92A/98(H9N2))
  Kd: 39.4 nM

## TSNWTGNYF
[25]
  Kd: 7730 nM
[29]
  Kd: 2270 nM
[16]
  Kd: 894 nM
[26]
  Kd: 11400 nM
[30]
  Kd: 15600 nM

## MPAIFFSIV
[31]
  Kd: ≥ 5000 nM
[32]
  Kd: 1320 nM
[33]
  Kd: ≥ 5000 nM
[28]; [48]
  Kd: 84.1 nM
[23]; [48]
  Kd: 1.2 nM
[34]
  Kd: 642 nM

## ILAPNPNRF
[16]
  Kd: 26.1 nM

## FAAVEGIFF
[16]
  Kd: 309 nM

## KIYNVTNPF
[25]
  Kd: 2.72 nM
[16]
  Kd: 7.54 nM
[26]
  Kd: 4.25 nM

## FGAAVSLLF
[35]
  Kd: ≥ 20000 nM
[36]
  Kd: ≥ 20000 nM
[22]; [51]
  Kd: 1.3 nM
[37]
  Kd: ≥ 20000 nM
[23]; [51]
  Kd: 2.7 nM
[38]
  Kd: ≥ 20000 nM
[39]
  Kd: ≥ 20000 nM
[24]; [51]
  Kd: ≥ 20000 nM
[1]; source organism: Orthohantavirus andesense
  Kd: 53.6 nM
[40]
  Kd: ≥ 20000 nM
[41]
  Kd: ≥ 20000 nM
[42]
  Kd: ≥ 20000 nM
[43]
  Kd: ≥ 20000 nM
[12]; [51]
  Kd: ≥ 20000 nM
[44]
  Kd: ≥ 20000 nM
[45]
  Kd: ≥ 20000 nM

## ALVITINYF
[16]
  Kd: 666 nM

## AKTSTLIFF
[16]
  Kd: 1.56 nM

## GRVTVSTKR
[27]; source organism: Influenza A virus
  Kd: 553 nM
